This note sets out measurements from patent publication US20180369344.

This data set concerns the target alpha1 antitrypsin (AAT), P01009.

alpha1 antitrypsin (AAT), P01009, sequence (P01009 whole entry, looked up): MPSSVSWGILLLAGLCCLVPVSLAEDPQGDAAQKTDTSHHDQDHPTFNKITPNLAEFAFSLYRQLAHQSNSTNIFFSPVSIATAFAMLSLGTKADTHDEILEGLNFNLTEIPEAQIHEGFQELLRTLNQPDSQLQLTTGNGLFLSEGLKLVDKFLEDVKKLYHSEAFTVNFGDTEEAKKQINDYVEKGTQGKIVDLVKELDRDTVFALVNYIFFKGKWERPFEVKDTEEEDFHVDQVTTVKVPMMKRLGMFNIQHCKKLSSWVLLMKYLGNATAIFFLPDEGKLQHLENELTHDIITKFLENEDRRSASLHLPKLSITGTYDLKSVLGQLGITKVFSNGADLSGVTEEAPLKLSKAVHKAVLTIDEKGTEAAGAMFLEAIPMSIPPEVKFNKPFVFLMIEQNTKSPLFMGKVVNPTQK

B1: wildtype Cela2a (protein)
chain: VVGGEEARPNSWPWQVSLQYSSNGKWYHTCGGSLIANSWVLTAAHCISSSRTYRVGLGRHNLYVAESGSLAVSVSKIVVHKDWNSNQISKGNDIALLKLANPVSLTDKIQLACLPPAGTILPNNYPCYVTGWGRLQTNGAVPDVLQQGRLLVVDYATCSSSAWWGSSVKTSMICAGGDGVISSCNGDSGGPLNCQASDGRWQVHGIVSFGSRLGCNYYHKPSVFTRVSNYIDWINSVIANN
As for B1, the “cleavage of alpha1-antitrypsin” value was “Cela2a cleaves alphal-antitrypsin”.
